Assay results taken from paper PMC3428624.

Biological target: histone H3 K115C (UniProt P84233)
Assay: cross-linking

Q: For “histone H3 K115C (from UniProt P84233 2-136) (natural protein)”, which efficiency of crosslinking at H3 K115C (H3-H3’) is on record?
A: Its efficiency of crosslinking at H3 K115C (H3-H3’) is 80%.
